Experimental data published in patent US20180155451A1 (published 2018).
Residue numbers refer to the chain shown, from its start. Numbers in names are those of the source.

T1: FcγRIIb extracellular domain with C-terminal His tag (human, UniProt P31994 43-217)
T1 construct: extracellular domain; also called FcgRIIb; 2b; not shown: His tag at the C terminus
T1 sequence (looked up): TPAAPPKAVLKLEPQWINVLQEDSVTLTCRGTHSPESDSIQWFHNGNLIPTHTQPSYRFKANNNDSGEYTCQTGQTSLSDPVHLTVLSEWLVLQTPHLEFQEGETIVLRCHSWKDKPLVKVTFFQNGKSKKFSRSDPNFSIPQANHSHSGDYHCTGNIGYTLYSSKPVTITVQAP

T2: FcgRIIb (human, UniProt P31994 43-217)
T2 construct: extracellular domain; also called FcγRIIb; not shown: His tag attached to the C terminus
T2 sequence (looked up): T1 sequence (looked up)

T3: FcgRIIa R (human, UniProt P12318 34-217)
T3 construct: extracellular domain; also called FcγRIIa R; FcγRIIa type R; not shown: His tag attached to the C terminus
T3 sequence (looked up): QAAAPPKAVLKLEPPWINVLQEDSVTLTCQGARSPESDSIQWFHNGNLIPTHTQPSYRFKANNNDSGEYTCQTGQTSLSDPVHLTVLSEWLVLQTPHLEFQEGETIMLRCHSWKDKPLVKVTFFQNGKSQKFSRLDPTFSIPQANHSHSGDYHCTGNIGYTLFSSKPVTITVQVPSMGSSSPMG

T4: FcgRIIa H (human, UniProt P12318 34-217)
T4 construct: extracellular domain; also called FcγRIIa H; FcγRIIa type H; not shown: His tag attached to the C terminus
T4 sequence (looked up): T3 sequence (looked up) with R134H

B1: GpH7-A5/GpH7-B3 variant S239_04F/GpL16-k0 (antibody, human IgG1, kappa)
heavy 1: not shown
heavy 2: not shown
light: DIVMTQSPLSLPVTPGEPASISCQASESLVHSNRNTYLHWYLQKPGQSPQLLIYKVSNRFSGVPDRFSGSGSGTDFTLKISRVEAEDVGVYYCSQNTHVPPTFGQGTKVEIERTVAAPSVFIFPPSDEQLKSGTASVVCLLNNFYPREAKVQWKVDNALQSGNSQESVTEQDSKDSTYSLSSTLTLSKADYEKHKVYACEVTHQGLSSPVTKSFNRGEC
notes: Heterodimerized anti-glypican-3 IgG1; the substitution stands in the GpH7-B3 chain only; also called He Ab
B2: GpH7-A5/GpH7-B3 variant S239_07I/GpL16-k0 (antibody, human IgG1, kappa)
heavy 1: not shown
heavy 2: not shown
light: B1 light
notes: as for B1
B3: GpH7-A5/GpH7-B3 variant S239_19Q/GpL16-k0 (antibody, human IgG1, kappa)
heavy 1: not shown
heavy 2: not shown
light: B1 light
notes: as for B1
B4: GpH7-A5/GpH7-B3 variant S239_11K/GpL16-k0 (antibody, human IgG1, kappa)
heavy 1: not shown
heavy 2: not shown
light: B1 light
notes: as for B1
B5: GpH7-A5/GpH7-B3 variant S239_15Y/GpL16-k0 (antibody, human IgG1, kappa)
heavy 1: not shown
heavy 2: not shown
light: B1 light
notes: as for B1
B6: GpH7-A5/GpH7-B3 variant S239_05P/GpL16-k0 (antibody, human IgG1, kappa)
heavy 1: not shown
heavy 2: not shown
light: B1 light
notes: as for B1
B7: GpH7-A5/GpH7-B3 variant S239_08L/GpL16-k0 (antibody, human IgG1, kappa)
heavy 1: not shown
heavy 2: not shown
light: B1 light
notes: as for B1
B8: GpH7-A5/GpH7-B3 variant S239_12R/GpL16-k0 (antibody, human IgG1, kappa)
heavy 1: not shown
heavy 2: not shown
light: B1 light
notes: as for B1
B9: GpH7-A5/GpH7-B3 variant S239_06M/GpL16-k0 (antibody, human IgG1, kappa)
heavy 1: not shown
heavy 2: not shown
light: B1 light
notes: as for B1
B10: GpH7-A5/GpH7-B3 variant S239_16H/GpL16-k0 (antibody, human IgG1, kappa)
heavy 1: not shown
heavy 2: not shown
light: B1 light
notes: as for B1
B11: H240-Kn061 (A231E)/H240-Hl071/L73-k0 (antibody, human IgG1, kappa)
heavy 1: QDQLVQSGAEVKKPGASVKVSCKASGFNIKDTYIQWVRQAPGQGLEWMGRIDPLRKQTKYREKFEGRVTITADTSTNTAYMELSSLRSEDTAVYYCVRSGREFDYWGQGTLVTVSSASTKGPSVFPLAPSSKSTSGGTAALGCLVKDYFPEPVTVSWNSGALTSGVHTFPAVLQSSGLYSLSSVVTVPSSSLGTQTYICNVNHKPSNTKVDKKVEPKSCDKTHTCPPCPEPEYYWGPSVFLFPPKPKDTLMISRTPEVTCVVVDVSDEDPEVKFNWYVDGVEVHNAKTKPREEQYNATYRVVSVLTVLHQDWLNGKEYKCKVSNKALPAPIEKTISKAKGQPREPQVCTLPPSRDELTKNQVSLWCLVKGFYPSDIAVEWESNGQPENNYKTTPPVLDSDGSFFLYSKLTVDKSRWQQGNVFSCSVMHEALHNHYTQKSLSLSP
heavy 2: QDQLVQSGAEVKKPGASVKVSCKASGFNIKDTYIQWVRQAPGQGLEWMGRIDPLRKQTKYREKFEGRVTITADTSTNTAYMELSSLRSEDTAVYYCVRSGREFDYWGQGTLVTVSSASTKGPSVFPLAPSSKSTSGGTAALGCLVKDYFPEPVTVSWNSGALTSGVHTFPAVLQSSGLYSLSSVVTVPSSSLGTQTYICNVNHKPSNTKVDKKVEPKSCDKTHTCPPCPAPELLGGPSVFLFPPKPKDTLMISRTPEVTCVVVDVSHEDPEVKFNWYVDGVEVHNAKTKPREEQYNSTYRVVSVLTVLHQDWLNGKEYKCKVSNDALPMPIEETISKAKGQPREPQVYTLPPSRCELTKNQVSLSCAVKGFYPSDIAVEWESNGQPENNYKTTPPVLDSDGSFFLVSKLTVDKSRWQQGNVFSCSVMHEALHNHYTQKSLSLSP
light: DIQMTQSPSSLSASVGDRVTITCRASQDIHKYIAWYQQKPGQAPRLLIQYTSTLQPGVPSRFSGSGSGTDYTFTISSLQPEDIATYYCLQYEQLRTFGGGTKVEIKRTVAAPSVFIFPPSDEQLKSGTASVVCLLNNFYPREAKVQWKVDNALQSGNSQESVTEQDSKDSTYSLSSTLTLSKADYEKHKVYACEVTHQGLSSPVTKSFNRGEC
B12: H240-Kn061 (A231Q)/H240-Hl071/L73-k0 (antibody, human IgG1, kappa)
heavy 1: B11 heavy 1 with E230Q
heavy 2: B11 heavy 2
light: B11 light
B13: H240-Kn061 (A231V)/H240-Hl071/L73-k0 (antibody, human IgG1, kappa)
heavy 1: B11 heavy 1 with E230V
heavy 2: B11 heavy 2
light: B11 light
B14: H240-Kn061 (S239I)/H240-Hl071/L73-k0 (antibody, human IgG1, kappa)
heavy 1: B11 heavy 1 with E230A, S238I
heavy 2: B11 heavy 2
light: B11 light
B15: H240-Kn061 (S239L)/H240-Hl071/L73-k0 (antibody, human IgG1, kappa)
heavy 1: B11 heavy 1 with E230A, S238L
heavy 2: B11 heavy 2
light: B11 light
B16: H240-Kn061 (S239M)/H240-Hl071/L73-k0 (antibody, human IgG1, kappa)
heavy 1: B11 heavy 1 with E230A, S238M
heavy 2: B11 heavy 2
light: B11 light

Key:
[1] = molecular target: T5, FcγRIIIa extracellular domain with C-terminal His tag (human, UniProt P08637 17-208); test: SPR (Biacore), antibody captured on antigen peptide chip, FcγR as analyte; relative binding amount
T5 construct: extracellular domain; also called FcgRIIIa; 3a; not shown: His tag at the C terminus
T5 sequence (P08637 17-208): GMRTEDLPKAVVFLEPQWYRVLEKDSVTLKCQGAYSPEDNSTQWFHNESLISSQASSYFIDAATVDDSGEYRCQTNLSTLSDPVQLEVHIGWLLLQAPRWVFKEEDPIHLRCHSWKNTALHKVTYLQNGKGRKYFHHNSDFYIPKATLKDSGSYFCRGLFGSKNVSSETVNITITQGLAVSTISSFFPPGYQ

[2] = molecular target: T1, FcγRIIb extracellular domain with …; test: as above
[3] = molecular target: T5, FcγRIIIa extracellular domain with …; test: SPR; He/Con_3a divided by He/Con_2b (binding to FcγRIIb is the reference)
Protocol: Analysis of interaction between objective antibody and the FcγR was carried out using Biacore T100 (GE Healthcare). HBS-EP+ (GE Healthcare) was used as the running buffer, and the measurement temperature was set to 25° C. Chips produced by immobilizing the antigen peptide by the amine coupling method to a Series S Sencor Chip CM5 (GE Healthcare), or alternatively, chips produced by allowing preliminarily biotinylated antigen peptides to interact with and immobilize onto a Series S Sensor Chip SA (certified) (GE Healthcare) were used. Antibodies of interest were captured onto an antigen peptide-immobilized chip, and allowed to interact to each FcγR diluted with running buffer. To regenerate and repeatedly use the chip, the antibodies captured on the chip were washed off by reacting 10 mM glycine-HCl, pH 1.5.
The FcγR-binding activity of each antibody was assessed primarily using as an indicator the FcγR-binding activity and dissociation constant for FcγR.

[4] = molecular target: T2, FcgRIIb; test: SPR (Biacore); KD of H240-Kn061/H240-Hl071/L73-k0 divided by KD of the variant
Protocol: (§1) The antibodies were assessed for the binding to each FcgR. […] The resultant value was defined as relative KD, and used as an assessment indicator.
(§2) Analysis of interaction between obj ective antibody and the FcγR was carried out using Biacore T100 (GE Healthcare), Biacore T200, Biacore A100, and Biacore 4000. HBS-EP+ (GE Healthcare) was used as the running buffer, and the measurement temperature was set to 25° C. Chips produced by immobilizing the antigen peptide by the amine coupling method to a Series S sensor Chip CM5 (GE Healthcare), chips produced by allowing preliminarily biotinylated antigen peptides to interact with and immobilize onto a Series S Sensor Chip SA (certified) (GE Healthcare), chips produced by immobilizing Protein L (ACTIGEN, BioVision) to Series S Sencor Chip CM5 (GE Healthcare), or chips produced by immobilizing Protein A/G (Thermo Scientific) to Series S Sencor Chip CM5 (GE Healthcare) were used. Antibodies of interest were captured onto these chips, and allowed to interact to each FcγR diluted with running buffer.

[5] = molecular target: T6, FcgRIIIa V (human, UniProt P08637 17-208); test: as above
T6 construct: extracellular domain; also called FcγRIIIa V; not shown: His tag attached to the C terminus
T6 sequence (P08637 17-208 F176V limits assumed): as the sequence (P08637 17-208) above, with F160V counted along it
Protocol: as §1, §2

[6] = molecular target: T3, FcgRIIa R; test: as above
Protocol: as §1, §2

[7] = molecular target: T7, FcgRIIIa F (human, UniProt P08637 17-208); test: as above
T7 construct: extracellular domain; also called FcγRIIIa F; 3aF; not shown: His tag attached to the C terminus
T7 sequence (P08637 17-208): as the sequence (P08637 17-208) above
Protocol: as §1, §2

[8] = molecular target: T4, FcgRIIa H; test: as above
Protocol: as §1, §2

| Binder | He/Con_3a [1] | He/Con_2b [2] | He_3a/2b (IIIa/IIb) [3] [ratio] | Relative KD [4] | Relative KD [5] | Relative KD [6] | Relative KD [7] | Relative KD [8] |
| --- | --- | --- | --- | --- | --- | --- | --- | --- |
| B1 | 25.3 % of GpH7-A5/GpH7-B3/GpL16-k0 (=100) | 44.1 % of GpH7-A5/GpH7-B3/GpL16-k0 (=100) | 0.57 | – | – | – | – | – |
| B2 | 79.3 % of GpH7-A5/GpH7-B3/GpL16-k0 (=100) | 107 % of GpH7-A5/GpH7-B3/GpL16-k0 (=100) | 0.74 | – | – | – | – | – |
| B3 | 56.9 % of GpH7-A5/GpH7-B3/GpL16-k0 (=100) | 86.1 % of GpH7-A5/GpH7-B3/GpL16-k0 (=100) | 0.66 | – | – | – | – | – |
| B4 | 11.9 % of GpH7-A5/GpH7-B3/GpL16-k0 (=100) | 24.7 % of GpH7-A5/GpH7-B3/GpL16-k0 (=100) | 0.48 | – | – | – | – | – |
| B5 | 25.6 % of GpH7-A5/GpH7-B3/GpL16-k0 (=100) | 34.9 % of GpH7-A5/GpH7-B3/GpL16-k0 (=100) | 0.73 | – | – | – | – | – |
| B6 | 14.9 % of GpH7-A5/GpH7-B3/GpL16-k0 (=100) | 102 % of GpH7-A5/GpH7-B3/GpL16-k0 (=100) | 0.15 | – | – | – | – | – |
| B7 | 95.3 % of GpH7-A5/GpH7-B3/GpL16-k0 (=100) | 140 % of GpH7-A5/GpH7-B3/GpL16-k0 (=100) | 0.68 | – | – | – | – | – |
| B8 | 17 % of GpH7-A5/GpH7-B3/GpL16-k0 (=100) | 39.1 % of GpH7-A5/GpH7-B3/GpL16-k0 (=100) | 0.44 | – | – | – | – | – |
| B9 | 78.2 % of GpH7-A5/GpH7-B3/GpL16-k0 (=100) | 101 % of GpH7-A5/GpH7-B3/GpL16-k0 (=100) | 0.78 | – | – | – | – | – |
| B10 | 29.2 % of GpH7-A5/GpH7-B3/GpL16-k0 (=100) | 49.4 % of GpH7-A5/GpH7-B3/GpL16-k0 (=100) | 0.59 | – | – | – | – | – |
| B11 | – | – | – | 1.4 | 2 | 1.7 | 1.8 | 1.6 |
| B12 | – | – | – | 1.4 | 1.7 | 1.5 | 1.5 | 1.5 |
| B13 | – | – | – | 1.6 | 1.5 | 1.6 | 1.3 | 1.6 |
| B14 | – | – | – | 3.1 | 3.4 | 4.4 | 3 | 2.1 |
| B15 | – | – | – | 3.4 | 3.7 | 4.8 | 3.4 | 2.4 |
| B16 | – | – | – | 2.2 | 2.8 | 3.2 | 2.2 | 2 |
